Five sequences from the supplement of paper PMC5998384 can be followed below.

The subject of series [1] is HeLa Kyoto. Kind of series: melting temperature (median over replicates), in situ; higher = more thermally stable.
Series [2] deals with HeLa Kyoto. As to the kind of experiment: solubility change mitosis vs G1/S (difference of NP-40 vs SDS log2 ratios) (log2 ratio difference); higher = more soluble in mitosis.
Series [3] relates to HeLa Kyoto. Kind of series: thermal stability score vs G1/S (z-score of summed log2 fold changes over temperatures); higher = more thermally stable than in G1/S.
Series [4] relates to HeLa Kyoto. Kind of series: solubility in G1/S (NP-40 vs SDS abundance) (log2 ratio); higher = more soluble. The conditions noted are these: cell cycle stage: G1/S.
Where [5] appears, read: cell cycle stage: early G1 (4.5 h after nocodazole release).
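For melting temperature (median over replicates), in situ in this document: HeLa Kyoto cells synchronized by double thymidine or nocodazole block, proteins quantified by TMT10plex mass spectrometry, three independent biological replicates.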
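For solubility change mitosis vs G1/S (difference of NP-40 vs SDS log2 ratios) in this document: synchronized HeLa Kyoto cells (double thymidine block for G1/S, nocodazole release for mitosis), protein amounts in NP-40 versus SDS lysates quantified by mass spectrometry, three biological replicates.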
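For solubility in G1/S (NP-40 vs SDS abundance) in this document: HeLa Kyoto cells arrested at G1/S by double thymidine block, proteins quantified by TMT10plex mass spectrometry in mild NP-40 versus SDS extracts, three biological replicates.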
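For thermal stability score vs G1/S (z-score of summed log2 fold changes over temperatures) in this document: synchronized HeLa Kyoto cells, proteins quantified by TMT10plex mass spectrometry, three biological replicates, mitosis taken 0.5 h after nocodazole release, G1/S directly after double thymidine block.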

As to “MSGVRAVRISIESACEKQVHEVGLDGTETYLPPLSMSQNLARLAQRIDFSQGSGSEEEEAAGTEGDAQEWPGAGSSADQDDEEGVVKFQPSLWPWDSVRNNLRSALTEMCVLYDVLSIVRDKKFMTLDPVSQDALPPKQNPQTLQLISKKKSLAGAAQILLKGAERLTKSVTENQENKLQRDFNSELLRLRQHWKLRKVGDKILGDLSYRSAGSLFPHHGTFEVIKNTDLDLDKKIPEDYCPLDVQIPSDLEGSAYIKVSIQKQAPDIGDLGTVNLFKRPLPKSKPGSPHWQTKLEAAQNVLLCKEIFAQLSREAVQIKSQVPHIVVKNQIISQPFPSLQLSISLCHSSNDKKSQKFATEKQCPEDHLYVLEHNLHLLIREFHKQTLSSIMMPHPASAPFGHKRMRLSGPQAFDKNEINSLQSSEGLLEKIIKQAKHIFLRSRAAATIDSLASRIEDPQIQAHWSNINDVYESSVKVLITSQGYEQICKSIQLQLNIGVEQIRVVHRDGRVITLSYQEQELQDFLLSQMSQHQVHAVQQLAKVMGWQVLSFSNHVGLGPIESIGNASAITVASPSGDYAISVRNGPESGSKIMVQFPRNQCKDLPKSDVLQDNKWSHLRGPFKEVQWNKMEGRNFVYKMELLMSALSPCLL [MED17]”, the figures for the melting temperature with HeLa Kyoto [1] (cell cycle stage: G1/S) and in the series with HeLa Kyoto [1] (cell cycle stage: mitosis) were 50.4 °C and 49.7 °C, respectively. Besides, in the series with HeLa Kyoto [2], the “solubility change mitosis (log2)” value is -0.0898. Also, the results for the thermal stability score with HeLa Kyoto [3] (setting [5]) and in the series on HeLa Kyoto [3] (cell cycle stage: mitosis) were 0.0203 and 0.644, respectively. In the series on HeLa Kyoto [4], the “solubility in G1/S (log2)” value was determined as 0.0389.
Consider “MSHPDYRMNLRPLGTPRGVSAVAGPHDIGASPGDKKSKNRSTRGKKKSIFETYMSKEDVSEGLKRGTLIQGVLRINPKKFHEAFIPSPDGDRDIFIDGVVARNRALNGDLVVVKLLPEEHWKVVKPESNDKETEAAYESDIPEELCGHHLPQQSLKSYNDSPDVIVEAQFDGSDSEDGHGITQNVLVDGVKKLSVCVSEKGREDGDAPVTKDETTCISQDTRALSEKSLQRSAKVVYILEKKHSRAATGFLKLLADKNSELFRKYALFSPSDHRVPRIYVPLKDCPQDFVARPKDYANTLFICRIVDWKEDCNFALGQLAKSLGQAGEIEPETEGILTEYGVDFSDFSSEVLECLPQGLPWTIPPEEFSKRRDLRKDCIFTIDPSTARDLDDALSCKPLADGNFKVGVHIADVSYFVPEGSDLDKVAAERATSVYLVQKVVPMLPRLLCEELCSLNPMSDKLTFSVIWTLTPEGKILDEWFGRTIIRSCTKLSYEHAQSMIESPTEKIPAKELPPISPEHSSEEVHQAVLNLHGIAKQLRQQRFVDGALRLDQLKLAFTLDHETGLPQGCHIYEYRESNKLVEEFMLLANMAVAHKIHRAFPEQALLRRHPPPQTRMLSDLVEFCDQMGLPVDFSSAGALNKSLTQTFGDDKYSLARKEVLTNMCSRPMQMALYFCSGLLQDPAQFRHYALNVPLYTHFTSPIRRFADVLVHRLLAAALGYRERLDMAPDTLQKQADHCNDRRMASKRVQELSTSLFFAVLVKESGPLESEAMVMGILKQAFDVLVLRYGVQKRIYCNALALRSHHFQKVGKKPELTLVWEPEDMEQEPAQQVITIFSLVEVVLQAESTALKYSAILKRPGTQGHLGPEKEEEESDGEPEDSSTS [DIS3L2]”, for which the melting temperature was 50.6 °C with HeLa Kyoto [1] (cell cycle stage: G1/S) and 50.5 °C with HeLa Kyoto [1] (cell cycle stage: mitosis). Besides, in the series with HeLa Kyoto [2], the “solubility change mitosis (log2)” value was -0.1. Further, the values for the thermal stability score in the series on HeLa Kyoto [3] (setting [5]) and with HeLa Kyoto [3] (cell cycle stage: mitosis) were -0.153 and -0.198, respectively. Further, the “solubility in G1/S (log2)” value in the series with HeLa Kyoto [4] was -0.0925.
In the case of “MSIMSYNGGAVMAMKGKNCVAIAADRRFGIQAQMVTTDFQKIFPMGDRLYIGLAGLATDVQTVAQRLKFRLNLYELKEGRQIKPYTLMSMVANLLYEKRFGPYYTEPVIAGLDPKTFKPFICSLDLIGCPMVTDDFVVSGTCAEQMYGMCESLWEPNMDPDHLFETISQAMLNAVDRDAVSGMGVIVHIIEKDKITTRTLKARMD [PSMB3]”, the melting temperature in the series with HeLa Kyoto [1] (cell cycle stage: G1/S) came out at 59.9 °C; in the series with HeLa Kyoto [1] (cell cycle stage: mitosis), 62.6 °C. For the same sequence, the “solubility change mitosis (log2)” value in the series on HeLa Kyoto [2] is -0.241. In addition, the thermal stability score was -1.89 with HeLa Kyoto [3] (setting [5]) and -1.25 with HeLa Kyoto [3] (cell cycle stage: mitosis). The “solubility in G1/S (log2)” value with HeLa Kyoto [4] worked out at 0.275.
In the case of “MSKGPGPGGSAASSAPPAATAQVLQAQPEKPQHYTYLKEFRTEQCPLFVQHKCTQHRPYTCFHWHFVNQRRRRSIRRRDGTFNYSPDVYCTKYDEATGLCPEGDECPFLHRTTGDTERRYHLRYYKTGICIHETDSKGNCTKNGLHCAFAHGPHDLRSPVYDIRELQAMEALQNGQTTVEGSIEGQSAGAASHAMIEKILSEEPRWQETAYVLGNYKTEPCKKPPRLCRQGYACPYYHNSKDRRRSPRKHKYRSSPCPNVKHGDEWGDPGKCENGDACQYCHTRTEQQFHPEIYKSTKCNDMQQSGSCPRGPFCAFAHVEQPPLSDDLQPSSAVSSPTQPGPVLYMPSAAGDSVPVSPSSPHAPDLSALLCRNSSLGSPSNLCGSPPGSIRKPPNLEGIVFPGESGLAPGSYKKAPGFEREDQVGAEYLKNFKCQAKLKPHSLEPRSQEQPLLQPKQDMLGILPAGSPLTSSISSSITSSLAATPPSPVGTSSVPGMNANALPFYPTSDTVESVIESALDDLDLNEFGVAALEKTFDNSTVPHPGSITIGGSLLQSSAPVNIPGSLGSSASFHSASPSPPVSLSSHFLQQPQGHLSQSENTFLGTSASHGSLGLNGMNSSIWEHFASGSFSPGTSPAFLSGPGAAELARLRQELDEANSTIKQWEESWKQAKQACDAWKKEAEEAGERASAAGAECELAREQRDALEVQVKKLQEELERLHAGPEPQALPAFSDLEALSLSTLYSLQKQLRAHLEQVDKAVFHMQSVKCLKCQEQKRAVLPCQHAALCELCAEGSECPICQPGRAHTLQS [UNK]”, the melting temperature with HeLa Kyoto [1] (cell cycle stage: G1/S) is 51 °C; with HeLa Kyoto [1] (cell cycle stage: mitosis), 50.9 °C. Further, in the series with HeLa Kyoto [2], the “solubility change mitosis (log2)” value is -0.0731. Besides, the values for the thermal stability score in the series with HeLa Kyoto [3] (setting [5]) and with HeLa Kyoto [3] (cell cycle stage: mitosis) were 0.349 and 1.68, respectively. Also, the “solubility in G1/S (log2)” value in the series with HeLa Kyoto [4] is 0.0454.
As for “MSKRHRLDLGEDYPSGKKRAGTDGKDRDRDRDREDRSKDRDRERDRGDREREREKEKEKELRASTNAMLISAGLPPLKASHSAHSTHSAHSTHSTHSAHSTHAGHAGHTSLPQCINPFTNLPHTPRYYDILKKRLQLPVWEYKDRFTDILVRHQSFVLVGETGSGKTTQIPQWCVEYMRSLPGPKRGVACTQPRRVAAMSVAQRVADEMDVMLGQEVGYSIRFEDCSSAKTILKYMTDGMLLREAMNDPLLERYGVIILDEAHERTLATDILMGVLKEVVRQRSDLKVIVMSATLDAGKFQIYFDNCPLLTIPGRTHPVEIFYTPEPERDYLEAAIRTVIQIHMCEEEEGDLLLFLTGQEEIDEACKRIKREVDDLGPEVGDIKIIPLYSTLPPQQQQRIFEPPPPKKQNGAIGRKVVVSTNIAETSLTIDGVVFVIDPGFAKQKVYNPRIRVESLLVTAISKASAQQRAGRAGRTRPGKCFRLYTEKAYKTEMQDNTYPEILRSNLGSVVLQLKKLGIDDLVHFDFMDPPAPETLMRALELLNYLAALNDDGDLTELGSMMAEFPLDPQLAKMVIASCDYNCSNEVLSITAMLSVPQCFVRPTEAKKAADEAKMRFAHIDGDHLTLLNVYHAFKQNHESVQWCYDNFINYRSLMSADNVRQQLSRIMDRFNLPRRSTDFTSRDYYINIRKALVTGYFMQVAHLERTGHYLTVKDNQVVQLHPSTVLDHKPEWVLYNEFVLTTKNYIRTCTDIKPEWLVKIAPQYYDMSNFPQCEAKRQLDRIIAKLQSKEYSQY [DHX15]”, the melting temperature was 53.9 °C with HeLa Kyoto [1] (cell cycle stage: G1/S) and 53.7 °C in the series on HeLa Kyoto [1] (cell cycle stage: mitosis). Besides, in the series on HeLa Kyoto [2], the “solubility change mitosis (log2)” value stood at 0.272. Also, the thermal stability score turned out to be 0.104 in the series with HeLa Kyoto [3] (setting [5]) and 1.61 with HeLa Kyoto [3] (cell cycle stage: mitosis). Moreover, the “solubility in G1/S (log2)” value in the series with HeLa Kyoto [4] is -0.42.
